Experimental data reported in the supplement of paper PMC9170038.

Experiments:
[1] = test system: MS2 coat protein; assay: apparent KD of MS2 coat protein, switch ON state; designed switch direction (-1 OFF switch, 1 ON switch): -1; higher = weaker reporter binding; conditions: FMN input: 0 or 200 uM; Eterna round: R93 (includes R88 designs)
Method in brief: (§1)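 Apparent KD was obtained for each design as the median of normalised binding-curve fits over its clusters. RNA switches transcribed on-chip from Illumina sequencing clusters were titrated with SNAP-549-labelled MS2 coat protein (twofold steps, 0.7 or 1.5 nM to 3 µM) in 100 mM Tris-HCl pH 7.5, 80 mM KCl, 4 mM MgCl2, without or with constant ligand.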

[2] = test system: MS2 coat protein; assay: apparent KD of MS2 coat protein, switch OFF state (with FMN for OFF switches, without FMN for ON switches); designed switch direction (-1 OFF switch, 1 ON switch): -1; higher = weaker reporter binding; conditions: FMN input: 0 or 200 uM; Eterna round: R93 (includes R88 designs)
Method in brief: as §1

| Sequence | apparent KD of MS2 coat protein [1] [nM] | apparent KD of MS2 coat protein [2] [nM] |
| --- | --- | --- |
| AAAUUGUCAGGAUAUCCAGCUAUACGAAAUAUAUAUACACGGGAGAAGGGACAUGAGGAUCACCCAUGUUUGAA [JR_Exc004_Sub702] | 34 | 27.6 |
| AGCAAGUAAGGAUAUGCGAAGUCAGGACACACACUGACGAAGCAGAAGGUACAUGAGGAUCACCCAUGUAAGCA [JR_Exclusion-4 65% 3] | 24.6 | 18.7 |
| AAGAACAUAGGAUAUACAAGGAAGAAAGAAAAGAAAAGAAAACAUGAGGAUCACCCAUGUAGAAGGAUGUAGAA [EteRNA is fun!] | 24.4 | 24.8 |
| AAAAAGUGAGGAUAUACAUGAGGAUCACCCAUGUUAAGGUAAUAUAUAUAUAUAUAUAGUAGAAGGCACAAAAA [Default title] | 32.4 | 31.5 |
| GAAGUACGAGGAUAUACAUAGAUACAGAUACAUGUAGACGUACAUGAGGAUCACCCAUGUAGAAGGCGUACAAG [Mat - Same state - Mayanna Mod - D117] | 137 | 129 |
| AAAAUACAUGAGGAUCACCCAUGUGAGGAUAUCUUAAAGGGAAUAAAAUAACUCAAAAAGAGAAGGCGCAAAAA [Ex 1 May 30] | 34.6 | 32 |
| AAAAAGGCAGGAUAUACAAAACAGGGAAACCUGAAAAGGAAACAUGAGGAUCACCCAUGUAGAAGGGCCAAGAA [Clint Eastwood] | 31 | 30.9 |
| AACAGUACAGGAUAUACAUGAGGAUCACCCAUGUGAAAAUAAAGUGGCGUACCACGAAGUAGAAGGGUACUGGA [Ruby 58] | 21.1 | 72.5 |
| AUAAAACAUGAGGAUCACCCAUGUGAGGAUAUGCGAAACAAAGAAACAAACAAACAAAGCAGAAGGCACAAUAA [Amethyst 7] | 24.2 | 39.2 |
| GCUUGUGUAGGAUAUACAUGAGGAUCACCCAUGUGAGAGAAAAAAGUGAGAAAGAAAAGUAGAAGGACGUGAGG [salish99-ex3-80] | 86.5 | 76.5 |
| CUCAUGUCAGGAUAUCAGUAGUAAAAAAAAAAAAUUACUACUGAGAAGGGACAUGAGGAUCACCCAUGUCCAUU [EX4 304: Super Stable 4] | 53 | 36.9 |
| GAGAAUGAAGGAUAUACAUGAGGAUCACCCAUGUAAGAGAAAGAGGGAAAAGAGAAAAGUAGAAGGUCAAAGAG [Ruby 73] | 23.8 | 26 |
| GAAAAGUUAGGAUAUACAGAUAAAAAAACGAAAAAAAAUCUGUAGAAGGAACAUGAGGAUCACCCAUGUAAAAA [Mat - Exclusion 4 - Mayanna - D104] | 30.7 | 15.5 |
| AAAAAACAUGAGGAUCACCCAUGUUAGGAUAUGCUAUGGAAAAUAAAAAAUAAACAUAGCAGAAGGAACAAAAA [Mat - Exclusion 1 - Eli mod - D30] | 21.2 | 32.6 |
| AAGAAGCGAGGAUAUACAUGAGGAUCACCCAUGUAAAAGAAAGAAAAGGGAAAGAAAAGUAGAAGGCGCAAGAA [Nebpehtire Ahmose I, Ahmosis I] | 53 | 177 |
| AAUAUGGGAGGAUAUGCAUAGAUAAAGAAACAUGUUAAAACACAUGAGGAUCACCCAUGUAGAAGGCCCAUAUA [AJ 10] | 103 | 335 |
| AACAGGUUAGGAUAUGUGUAACAAAUAAAAAAAAUAUAAACACAGAAGGAACAUGAGGAUCACCCAUGUUAACA [May 28] | 24.4 | 17 |
| GAAAAGUGAGGAUAUACAGAUAAAAAAACGAAAAAAAAUCUGUAGAAGGCACAUGAGGAUCACCCAUGUAAAAG [Mat - Exclusion 4 - Mayanna - D107] | 36 | 36.6 |
| AACAAACAUGAGGAUCACCCAUGUCAGGAUAUGCAAAUAACAAACAACAAACAACAAAGCAGAAGGGACGACAA [Mat - Exclusion 1 - Eli mod - D51] | 22.1 | 25.6 |
| UGUGAACAUGAGGAUCACCCAUGUGAGGAUAUACGAGCGUGAGAAAGAUAAAACGAGCGUAGAAGGCACAAGAA [JR_Exclusion1_Sub5] | 43.3 | 57.5 |
| GAAAAGUGAGGAUAUUCGGAUAGGAAAACGAAAACCUAUCCGAAGAAGGCACAUGAGGAUCACCCAUGUGAAAA [Mat - Exaclusion 4 - Eli mod - D44] | 22.4 | 26.8 |
| AAGAAUGCAGGAUAUACAAGAAAGAAAGAAAAGAAAAGAAAACAUGAGGAUCACCCAUGUAGAAGGGCAUAGAA [EteRNA is fun!] | 32.6 | 25 |
| AAGAAACAUGAGGAUCACCCAUGUCAGGAUAUCCAAGAAAGAAAGAAAGAAAGAAGAAGGAGAAGGGACAAAGG [Lucius Antonius Pedo] | 64.8 | 67.3 |

| Sequence | apparent KD of MS2 coat protein [1] [nM] | apparent KD of MS2 coat protein [2] [nM] |
| --- | --- | --- |
| GAAAGGGCAGGAUAUGCAGAGAGAAAAAAAAAAAAAAAAAAACAUGAGGAUCACCCAUGUAGAAGGGCCGAAAG [salish99-ex2-03] | 34.7 | 48.1 |
| AAAAAGGUAGGAUAUACGAAAAAAAAGGGUAAAAAAUAAAAACAUGAGGAUCACCCAUGUAGAAGGACCAAAAA [Mat - Exclusion 2 - Tesla mod - D41] | 30.5 | 36.7 |
| AAAAAACAUGAGGAUCACCCAUGUAAGGAUAUGUAAAAUAAAAGAAAAAUAAAGAAAAGCAGAAGGUACAAGAA [JL wbt mod 18] | 37.1 | 23.4 |
| AAAAAGGGAGGAUAUACAUGAGGAUCACCCAUGUAAAAAAAAAAAAAGGGAAAAAAAAGUAGAAGGCCCAAAAA [Apepi] | 50.1 | 52.6 |
| AAGAAGGCAGGAUAUACAUGAAAGAAAGAAAAGAAAAGAAAACAUGAGGAUCACCCAUGUAGAAGGGCCAAGAA [EteRNA is fun!] | 29.8 | 109 |
| AAAAAGUGAGGAUAUACAUGAGGAUCACCCAUGUAAUAAAAAAAAAGGGUGGAAGAAAGUAGAAGGCACCAAAA [Ex 3 May 48] | 48.2 | 142 |
| AGUUGGCGAGGAUAUACAUGAGGAUCACCCAUGUGAGAGUAAGAAGUGAGAAAGAGAAGUAGAAGGCGCUAACA [Ruby 54] | 48.4 | 284 |
| GAAAAACAUGAGGAUCACCCAUGUCAGGAUAUCGAAAAAUAAAUAAAAAUAAAAUAAACGAGAAGGGACAAAAG [Mat - Same state - Mayanna Mod - D111] | 50.2 | 61.1 |
| AAGAAGUGAGGAUAUGCUGACAAUAUGAAGACUUGAGGUAUGCAGAAGGCACAUGAGGAUCACCCAUGUAAGAA [JR_Exclusion4_Sub4] | 27.4 | 23.6 |
| AAAAAAAGAGGAUAUACAUGAGAAAAAAAAAUGUAAAAAAAACAUGAGGAUCACCCAUGUAGAAGGCUUAAAAA [Ecxl-I] | 33.5 | 48.3 |
| AAGAAGUCAGGAUAUGCGAAGGCGUCUGAUAGACGAGGCUAGCAGAAGGGACAUGAGGAUCACCCAUGUAAAGA [Mat - Exclusion 4 - D83] | 45 | 55 |
| AACUGACAUGAGGAUCACCCAUGUCAGGAUAUGAUAUGUAAAAAAAAAAAAAUACUUAUCAGAAGGGACAUGGA [Design 42: Sub-opt BB] | 22.8 | 30 |
| AAGAAACUAGGAUAUACAAGGAAGAAAGAAAAGAAAAGAAAACAUGAGGAUCACCCAUGUAGAAGGAGUUAGAA [EteRNA is fun!] | 36.3 | 31.3 |
| AACAAGUGAGGAUAUCGGAAAAGUAAAUAAGUAAAACAAAACGAGAAGGCACAUGAGGAUCACCCAUGUAAAUA [JR_Exc004_Sub014] | 17 | 17.4 |
| CUCUAGUCAGGAUAUCGAAGAAAAGAAGAGAAAGAAAAGAACGAGAAGGGACAUGAGGAUCACCCAUGUAAGAA [EteRNA is fun!] | 50 | 39.2 |
| AAGAACUCAGGAUAUACAUGAGGAUCACCCAUGUAAAAGAAAGAAGGGAAAGAGAAAAGUAGAAGGGAGAAGAA [Niumateped] | 17.5 | 23.8 |
| AAAAUGUCAGGAUAUGCGAAGGCAUCUGACAGAUGAGGAUUGCAGAAGGGACAUGAGGAUCACCCAUGUAAAAA | 66.7 | 41.7 |
| AAAAAGUCAGGAUAUGUACAAAAUAAAAUAAAAAUAAAAGUACAGAAGGGACAUGAGGAUCACCCAUGUAAAAA [Ex 4 May 11] | 38.6 | 36.6 |
| AAAAGUUCAGGAUAUACAUGAGGAUCACCCAUGUAGAAAGGAAGUGUAAAAAAAAAGUGUAGAAGGGAGCAUGA [MS2 Riboswitches On Chip Exclusion 3 wbt2] | 22.2 | 21.8 |
| AGUUGGCGAGGAUAUACAUGAGGAUCACCCAUGUGAGAGAAAAAAGUGAGAAAGAAAAGUAGAAGGCGCUGACA [salish99-ex3-05] | 49.2 | 202 |
| AAAAAGGUAGGAUAUACGAGGAGAAAUAAUAAAUAAAUAAAACAUGAGGAUCACCCAUGUAGAAGGACCAAAAA [Ex 2 sub 2] | 27.6 | 26.9 |
| AACGUACAUGAGGAUCACCCAUGUUAGGAUAUGCCGGGUUAGAGCCAACUAAAAAACCGUAGAAGGGACGAAAA [Bilbo Confounded 11 - Jieux - Exclusion 1] | 27.6 | 30.2 |
